Data as given in PMC4106346, “The Oligomeric States of the Purified Sigma-1 Receptor Are Stabilized by Ligands*” (The Journal of Biological Chemistry, 2014).
Where a chain is given by its changes, count along the chain named. Names may count otherwise.

B1: G91I MBP-4A-S1R (receptor, guinea pig, UniProt Q60492 1-223, looked up)
chain: MQWAVGRRWLWVALFLAAVAVLTQIVWLWLGTQNFVFQREEIAQLARQYAGLDHELAFSKLIVELRRLHPVHVLPDEELQWVFVNAGGWMIAMCLLHASLSEYVLLFGTALGSPRHSGRYWAEISDTIISGTFHQWREGTTKSEVFYPGETVVHGPGEATAVEWGPNTWMVEYGRGVIPSTLGFALADTVFSTQDFLTLFYTLRVYARALQLELTTYLFGQDP
notes: sigma-1 receptor (S1R), guinea pig, 223 amino acids, as m1 with G91I; also called G91I mutation; not shown: MBP with 4-Ala linker, N-terminal, kept
B2: G88I MBP-4A-S1R (receptor, guinea pig, UniProt Q60492 1-223, looked up)
chain: B1 chain with G88I, I91G
notes: sigma-1 receptor (S1R), guinea pig, 223 amino acids, as m1 with G88I; Named only as one of the substitutions of Ile or Leu at Gly-87, Gly-88 and Gly-91; also called substitution of Ile at Gly-88; not shown: MBP with 4-Ala linker, N-terminal, kept
B3: MBP-4A-S1R (guinea pig sigma-1 receptor fused to maltose-binding protein through a 4-Ala linker) (receptor, UniProt Q60492 1-223, looked up)
chain: B1 chain with I91G
notes: sigma-1 receptor (S1R), guinea pig, 223 amino acids; In detergent micelles (DDM); One preparation separates into a 6-8-mer, a tetramer and a monomer; also called nonmutated receptor; nonmutated fusion protein; source: preparative size exclusion chromatography; not shown: MBP with 4-Ala linker, N-terminal, kept
B4: H97A MBP-4A-S1R (receptor, guinea pig, UniProt Q60492 1-223, looked up)
chain: B1 chain with I91G, H97A
notes: sigma-1 receptor (S1R), guinea pig, 223 amino acids, as m1 with H97A; also called mutation H97A; not shown: MBP with 4-Ala linker, N-terminal, kept
B5: G88L MBP-4A-S1R (receptor, guinea pig, UniProt Q60492 1-223, looked up)
chain: B1 chain with G88L, I91G
notes: sigma-1 receptor (S1R), guinea pig, 223 amino acids, as m1 with G88L; Named only as one of the substitutions of Ile or Leu at Gly-87, Gly-88 and Gly-91; also called substitution of Leu at Gly-88; not shown: MBP with 4-Ala linker, N-terminal, kept
B6: G91L MBP-4A-S1R (receptor, guinea pig, UniProt Q60492 1-223, looked up)
chain: B1 chain with I91L
notes: sigma-1 receptor (S1R), guinea pig, 223 amino acids, as m1 with G91L; also called G91L mutation; not shown: MBP with 4-Ala linker, N-terminal, kept

Tests used:
[1] = target: the molecule itself; experiment: SEC; analytical size exclusion chromatography, Yarra SEC-3000, 10 mM HEPES pH 7.2, 150 mM NaCl, 0.3 mM TCEP, 0.018% DDM, column at 20 °C; self-association in protein-detergent micelles
[2] = target: the molecule itself; experiment: SEC-MALS; isolated peak 1 (largest oligomer) of MBP-4A-S1R; Superdex S200, 150 mM NaCl, 5 mM HEPES pH 7.2, 0.018% DDM
[3] = target: the molecule itself; experiment: SEC-MALS; isolated intermediate oligomer (peak *) of MBP-4A-S1R; Superdex S200, 150 mM NaCl, 5 mM HEPES pH 7.2, 0.018% DDM
[4] = target: the molecule itself; experiment: cross-linking; DSS (150 or 250 μM) on 5 μM isolated peak 1 (oligomer) of MBP-4A-S1R, 2 h at room temperature, with or without 10 μM BD-1047; SDS-PAGE

Protein	stoichiometry N [1]	binding result [1]	further results
B1	~2	–	–
B2	–	binds	–
B3	–	–	stoichiometry N [2]: 6 to 8; stoichiometry N [3]: 4; stoichiometry N [4]: > 4
B4	–	binds	–
B5	–	binds	–
B6	~4	–	–
